This note sets out measurements from EP4596582A1 (Sichuan Kelun-Biotech Biopharmaceutical Co., Ltd., dated 2025).

For test [1], the target named is T1, monkey B7-H3-4Ig-His protein (monkey).
T1 chain: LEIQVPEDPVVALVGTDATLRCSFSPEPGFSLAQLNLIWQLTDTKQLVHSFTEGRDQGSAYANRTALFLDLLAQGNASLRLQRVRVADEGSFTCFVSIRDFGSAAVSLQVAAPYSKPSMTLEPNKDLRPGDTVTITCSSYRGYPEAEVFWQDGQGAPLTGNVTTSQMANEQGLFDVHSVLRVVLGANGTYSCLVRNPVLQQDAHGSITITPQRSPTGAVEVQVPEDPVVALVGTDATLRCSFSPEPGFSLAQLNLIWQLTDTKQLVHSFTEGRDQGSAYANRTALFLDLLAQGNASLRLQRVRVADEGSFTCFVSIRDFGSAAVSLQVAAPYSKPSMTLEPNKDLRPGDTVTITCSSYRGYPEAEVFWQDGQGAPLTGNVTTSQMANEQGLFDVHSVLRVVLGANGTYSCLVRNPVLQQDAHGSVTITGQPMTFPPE
Kind of test: ELISA, antigen coated at 1 ug/ml. For orientation: In an ELISA, binding on a coated surface is turned into a signal by an enzyme label.

The target of test [2] is T2, human B7-H3-4Ig-His protein (human, UniProt Q5ZPR3 29-466).
T2 construct: extracellular domain; Made in HEK293-EBNA cells
T2 sequence: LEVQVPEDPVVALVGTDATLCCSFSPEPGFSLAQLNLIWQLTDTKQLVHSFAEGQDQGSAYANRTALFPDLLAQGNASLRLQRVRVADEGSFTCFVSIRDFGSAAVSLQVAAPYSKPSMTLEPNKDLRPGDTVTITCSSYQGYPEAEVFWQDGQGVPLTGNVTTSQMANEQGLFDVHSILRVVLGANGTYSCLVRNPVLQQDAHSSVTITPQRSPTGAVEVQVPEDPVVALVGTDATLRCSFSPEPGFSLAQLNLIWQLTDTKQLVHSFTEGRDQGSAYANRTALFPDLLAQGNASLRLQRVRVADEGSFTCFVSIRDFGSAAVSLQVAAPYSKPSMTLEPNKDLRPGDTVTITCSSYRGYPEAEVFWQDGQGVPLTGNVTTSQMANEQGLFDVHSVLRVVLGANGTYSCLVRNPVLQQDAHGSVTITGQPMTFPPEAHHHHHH
The test can be described thus: ELISA, antigen coated at 1 ug/ml.

Test [3] deals with T3, human B7-H3 on human tumor cells (MCF-7, HT29, NCI-N87, HCC1806, HCC827) (human, UniProt Q5ZPR3 29-534).
T3 construct: whole, on cells
T3 sequence (looked up): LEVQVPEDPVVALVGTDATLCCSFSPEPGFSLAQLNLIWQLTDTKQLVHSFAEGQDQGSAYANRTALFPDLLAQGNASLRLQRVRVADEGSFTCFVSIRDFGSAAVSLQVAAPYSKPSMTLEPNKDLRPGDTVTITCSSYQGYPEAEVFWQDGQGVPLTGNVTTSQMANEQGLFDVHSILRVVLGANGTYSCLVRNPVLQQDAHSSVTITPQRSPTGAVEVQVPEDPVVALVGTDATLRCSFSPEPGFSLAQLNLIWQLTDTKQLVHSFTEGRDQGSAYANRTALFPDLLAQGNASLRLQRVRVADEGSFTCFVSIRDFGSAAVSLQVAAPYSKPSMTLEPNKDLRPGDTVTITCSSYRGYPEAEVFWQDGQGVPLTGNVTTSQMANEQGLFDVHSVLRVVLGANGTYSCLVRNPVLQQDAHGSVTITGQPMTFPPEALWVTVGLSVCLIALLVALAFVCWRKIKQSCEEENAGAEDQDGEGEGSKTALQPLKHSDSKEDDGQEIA
Kind of test: flow cytometry on MCF-7 cells. In general terms: A flow cytometer gives signals particle by particle.

In test [4] the target is T1, monkey B7-H3-4Ig-His protein. The test can be described thus: ELISA, antigen coated at 1 ug/ml.
For test [5], the target named is T2, human B7-H3-4Ig-His protein. The test can be described thus: ELISA, antigen coated at 1 ug/ml. The source holds these as a separate data set.

Where two headings read alike, the source gives them in different places.

B1: anti-human-B7-H3 chimeric antibody 20G11G6 (antibody, V domains shown)
VH: QVQLQESGPGLVKPSGTLSLTCAVSGGSNSSSNWWTWVRQSPGKGLEWIGEISPTGFTSYSPSLKSRVTISVDKSKTQFSLNLSSVTAADTAVYYCARDRLYFDFWGQGTLVTVSS
VL: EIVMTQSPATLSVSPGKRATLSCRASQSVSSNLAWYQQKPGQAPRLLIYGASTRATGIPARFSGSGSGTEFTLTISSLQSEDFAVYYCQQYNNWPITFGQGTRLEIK
notes: Purified from hybridoma of H2L2 transgenic mice: human variable regions with constant regions of rat origin
One may read the EC50 as the concentration that produces a half-maximal response. Take B1: the concentration giving a half-maximal response (EC50) in test [1] was found to be 0.0213 µg/mL; in test [2], 0.0165 µg/mL; in test [3], 0.228 µg/mL.

B2: anti-human-B7-H3 human antibody 2# (antibody, human IgG1, kappa, V domains shown)
VH: QVQLQESGPGLVKPSGTLSLTCAVSGGSNSSSNWWTWVRQSPGKGLEWIGEISPTGFTSYSPSLKSRVTISVDKSKTQFSLNLSSVTAADTAVYYCARDRLYFDFWGQGTLVTVSS
VL: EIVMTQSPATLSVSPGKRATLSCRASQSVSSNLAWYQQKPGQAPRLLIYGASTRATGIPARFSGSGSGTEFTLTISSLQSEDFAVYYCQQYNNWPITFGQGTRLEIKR
notes: also called 20G11G6/2#
In the case of B2, the EC50 in test [4] was 0.00394 µg/mL; in test [5] it was 0.00297 µg/mL.
